Reference: paper PMC6131271
Blank lines part the entries; values can stand above or below the molecule they belong to.

Legend:
[1] = target: III-23, GPC(GPP)5GPOGPSGPRGQOGVMGFOGPKGNDGAO(GPP)5GPC; experiment: ELISA; control wells coated with III-23 or BSA; VWF-A3-GST at 5 μg/ml in PBS 0.1% BSA, room temperature; anti-GST HRP, A450
[2] = target: bovine Achilles tendon collagen type I film, 100% EDC/NHS crosslinked (bovine) (UniProt P02453)
[3] = target: Diaz-ES-VWFIIINle (diazirine-bearing end-stapled triple-helical peptide of three VWFIIINle strands)
[4] = target: bovine Achilles tendon collagen type I film, 100% EDC/NHS crosslinked (bovine) (UniProt P02453); experiment: ELISA; 100% EDC/NHS crosslinked collagen films in 96-well plates, without peptide or incubated with peptide at 5 μg/ml, left in the dark (no UV), washed with citrate buffer pH 3 and PBS; VWF-A3-GST at 5 μg/ml in PBS 0.1% BSA, room temperature; anti-GST HRP, A450
[5] = target: Diaz-ES-VWFIIINle (diazirine-bearing end-stapled triple-helical peptide of three VWFIIINle strands); experiment: as above
[6] = target: bovine Achilles tendon collagen type I film, 100% EDC/NHS crosslinked (bovine) (UniProt P02453); experiment: ELISA; 100% EDC/NHS crosslinked collagen films in 96-well plates, without peptide or incubated with peptide at 5 μg/ml for 30 min, then UV (365 nm) for 5 min, washed with citrate buffer pH 3 and PBS; VWF-A3-GST at 5 μg/ml in PBS 0.1% BSA, room temperature; anti-GST HRP, A450
[7] = target: Diaz-ES-VWFIIINle (diazirine-bearing end-stapled triple-helical peptide of three VWFIIINle strands); experiment: as above
[8] = target: bovine Achilles tendon collagen type I, non-crosslinked film (bovine) (UniProt P02453); experiment: ELISA; collagen films in 96-well plates, EDC/NHS crosslinked 0% to 100%, blocked with PBS 5% BSA; VWF A3-GST at 5 μg/ml in PBS 0.1% BSA, room temperature (2 h in the methods, 1 h in the legend); anti-GST HRP, TMB, A450
[9] = target: bovine Achilles tendon collagen type I film, 100% EDC/NHS crosslinked (bovine) (UniProt P02453); experiment: as above
[10] = target: bovine Achilles tendon collagen type I film, 50% EDC/NHS crosslinked (bovine) (UniProt P02453); experiment: as above
[11] = target: All other peptide treatments; experiment: ELISA; as a6 and a7, the three other peptide treatments taken together (VWFIIINle with UV, VWFIIINle without UV, Diaz-ES-VWFIIINle without UV) on 100% crosslinked films; DDR2-Fc at 1 μg/ml; A450
[12] = target: bovine Achilles tendon collagen type I film, 100% EDC/NHS crosslinked (bovine) (UniProt P02453); experiment: ELISA; 100% EDC/NHS crosslinked collagen films in 96-well plates, without peptide or incubated with peptide at 5 μg/ml for 30 min, then UV (365 nm) for 5 min, washed with citrate buffer pH 3 and PBS; DDR2-Fc at 1 μg/ml in PBS 0.1% BSA and 0.05% Tween-20, 2 h, room temperature; anti-Fc HRP, A450
[13] = target: Diaz-ES-VWFIIINle (diazirine-bearing end-stapled triple-helical peptide of three VWFIIINle strands); experiment: as above
[14] = target: bovine Achilles tendon collagen type I, non-crosslinked film (bovine) (UniProt P02453); experiment: ELISA; collagen films in 96-well plates, EDC/NHS crosslinked 0% to 100%, blocked with PBS 5% BSA; DDR2-Fc at 1 μg/ml in PBS 0.1% BSA with 0.05% Tween-20, 2 h, room temperature; anti-Fc HRP, TMB, A370 read before addition of sulfuric acid
[15] = target: bovine Achilles tendon collagen type I film, 100% EDC/NHS crosslinked (bovine) (UniProt P02453); experiment: as above
[16] = target: bovine Achilles tendon collagen type I film, 100% EDC/NHS crosslinked (bovine) (UniProt P02453); experiment: ELISA; 100% EDC/NHS crosslinked collagen films in 96-well plates, without peptide or incubated with peptide at 5 μg/ml, left in the dark (no UV), washed with citrate buffer pH 3 and PBS; DDR2-Fc at 1 μg/ml in PBS 0.1% BSA and 0.05% Tween-20, 2 h, room temperature; anti-Fc HRP, A450

A450 [1]: 1.42 absorbance
platelet surface coverage; human whole blood (full-length plasma VWF) perfused at 1000 s^-1 over 100% crosslinked films without peptide [2]: 5.6%
platelet surface coverage; human whole blood (full-length plasma VWF) perfused at 1000 s^-1 over 100% crosslinked films with Diaz-ES-VWFIIINle after UV [3]: 42.9%
A450 [4]: 0.26 absorbance
A450 [5]: 1.25 absorbance
A450 [6]: 0.24 absorbance
A450 [7]: 1.8 absorbance
A450 [8]: 0.57 absorbance
A450 [9]: 0.13 absorbance
A450 [10]: 0.12 absorbance
Molecule: recombinant GST-tagged human VWF-A3 domain (from UniProt P04275 23-2813) (domain or fragment)

A450 [11]: 1.16 to 1.43 absorbance
A450 [12]: 0.61 absorbance
A450 [13]: 1.9 absorbance
A370 [14]: 0.32 absorbance
A370 [15]: 0.18 absorbance
A450 [16]: 0.61 absorbance
B1: Recombinant soluble protein comprising the entire DDR2 extracellular region, fused to the Fc-sequence of human IgG2 (Fc fusion)
chain: KAQVNPAICRYPLGMSGGQIPDEDITASSQWSESTAAKYGRLDSEEGDGAWCPEIPVEPDDLKEFLQIDLHTLHFITLVGTQGRHAGGHGIEFAPMYKINYSRDGTRWISWRNRHGKQVLDGNSNPYDIFLKDLEPPIVARFVRFIPVTDHSMNVCMRVELYGCVWLDGLVSYNAPAGQQFVLPGGSIIYLNDSVYDGAVGYSMTEGLGQLTDGVSGLDDFTQTHEYHVWPGYDYVGWRNESATNGYIEIMFEFDRIRNFTTMKVHCNNMFAKGVKIFKEVQCYFRSEASEWEPNAISFPLVLDDVNPSARFVTVPLHHRMASAIKCQYHFADTWMMFSEITFQSDAAMYNNSEALPTSPMAPTTYDPMLKVDDSNTR
